Patent publication US8148141 (HIPEP LABORATORIES, dated 2012)
Values belong to the binder of their own block, whether it stands above or below them. Ends that are not written are not given here. carboxyfluorescein = carboxyfluorescein (fluorescent group); ethyldansyl = not defined here

How the values were obtained:
[1] = biological target: T1, calmodulin (Homo sapiens (Human), UniProt P0DP23 2-149); assay: fluorescence of immobilized labeled peptide on glass chip, ex 340 nm / em 480 nm, plate reader, 1.0 uM calmodulin, 25 C, 5 min
[2] = biological target: T1, calmodulin; assay: fluorescence of immobilized labeled peptide on glass chip, ex 490 nm / em 520 nm, calmodulin solution, 25 C, 5 min

increase of the fluorescence intensity (fold) [1]: ~5 times
B1: Glu(Rf1)-Leu-Lys-Lys-Leu-Leu-Lys-Leu-Leu-Lys-Lys-Leu-Leu-Lys-Leu-Lys(Rf2)-Cys-NH2 (peptide)
peptide: E(ethyldansyl)LKKLLKLLKKLLKLK(dabsyl)C-NH2
modifications: reading uncertain; also: printed as Glu(Rf1)-Leu-Lys-Lys-Leu-Leu-Lys-Leu-Leu-Lys-Lys-Leu-Leu-Lys-Leu-Lys(Rf2)-Cys-NH2
notes: Chemically synthesized designed peptide; Immobilized on a glass substrate in the assay; also called alpha-helix peptide with ethyldansyl-dabsyl labels, C-terminal Cys anchor

increase of the fluorescence intensity (fold) [1]: ~5 times
B2: Cys-Glu(Rf1)-Leu-Lys-Lys-Leu-Leu-Lys-Leu-Leu-Lys-Lys-Leu-Leu-Lys-Leu-Lys(Rf2)-NH2 (peptide)
peptide: CE(ethyldansyl)LKKLLKLLKKLLKLK(dabsyl)-NH2
modifications: reading uncertain; also: printed as Cys-Glu(Rf1)-Leu-Lys-Lys-Leu-Leu-Lys-Leu-Leu-Lys-Lys-Leu-Leu-Lys-Leu-Lys(Rf2)-NH2
notes: Chemically synthesized designed peptide; Immobilized on a glass substrate in the assay; also called alpha-helix peptide with ethyldansyl-dabsyl labels, N-terminal Cys anchor

increase of the fluorescence intensity (fold) [2]: ~10 times
B3: Lys(Rf3)-Leu-Lys-Lys-Leu-Leu-Lys-Leu-Leu-Lys-Lys-Leu-Leu-Lys-Leu-Cys-NH2 (peptide)
peptide: K(carboxyfluorescein)LKKLLKLLKKLLKLC-NH2
notes: also called peptide containing carboxyfluorescein
